Patent US20040132187A1

Target: endogenous bradykinin receptor of α7/5-HT3-SH-EP1 cells
Assay: cell-based or functional assay

“bradykinin (from UniProt P01042 381-389) (peptide)” showed an increase in intracellular calcium (Calcium Green-1, FLIPR) of 100 nM.
